Results reported in patent US20190071501A1 (REYOUNG SUZHOU BIOLOGY SCIENCE AND TECHNOLOGY, published 2019).

B1: humanized antibody anti-PD-1 (antibody, V domains shown)
VH: EVQLVESGGGLVKPGGSLRLSCAASGFTFSSYTMSWVRQAPGKGLEWVATISNGGSFTYYPDSMKGRFTISRDNSKNTLYLQMSSLRAEDTAVYYCARDSDYYGIFDYWGQGTTVTVSS
VL: DIVMTQSPLSLPVTPGEPASISCRSSKSLLYKDGKTYLNWYLQKPGQSPQLLIYLMSTRASGVPDRFSGSGSGTDFTLKISRVEAEDVGVYYCQQLVEDPFTFGQGTKLEIKR
notes: Human constant regions; also called humanized PD-1 antibody; hup01 (plasmids P3.1GS-hup01-HC / P3.1GS-hup01-LC)
B2: mouse anti-PD-1 (antibody, V domains shown)
VH: DVKLVESGGGLVKPGGSLKLSCAASGFTFSSYTMSWVRQTPEKRLEWVATISNGGSFTYYPDSMKGRFTISRDNAKNTLYLQMSSLKSEDTAMYYCTRDSDYYGIFDYWGQGTTLTVSS
VL: DIVITQDELSNPVTSGESVSISCRSSKSLLYKDGKTYLNWFLQRPGQSPQLLIYLMSTRASGVSDRFSGSGSGTDFTLEISRVKAEDVGVYYCQQLVEDPFTFGSGTKLEIKR
notes: also called mouse anti-PD-1 monoclonal antibody; mouse PD-1 antibody

Experiments:
PD1-His [1] = target: T1, PD1-His (human, UniProt Q15116 25-167, limits assumed); assay: ELISA, PD1-His coated; ELISA, PD1-His on the plate
T1 construct: also called hPD-1; not shown: His tag
T1 sequence (Q15116 25-167 limits assumed): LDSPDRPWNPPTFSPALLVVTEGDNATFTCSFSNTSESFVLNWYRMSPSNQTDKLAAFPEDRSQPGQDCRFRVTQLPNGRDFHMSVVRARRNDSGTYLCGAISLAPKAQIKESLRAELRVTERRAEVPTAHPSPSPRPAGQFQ
Experimental: Lay PD1-His on the plate, add gradient diluted antibody, incubate and wash it, and then add goat anti-mouse-HRP, perform coloration, and draw up the reaction curve by fitting of readings (see FIG. 6 for results) to calculate the EC50 value.

[2] = target: T2, PD-1 antigen of the Biacore experiment (not given) (UniProt Q15116 25-167, limits assumed); assay: SPR (Biacore), antibody captured by goat anti-human IgG on CM5 chip
T2 construct: Embodiment 5 describes capture by goat anti-human IgG on the chip but never names the analyte
T2 sequence (Q15116 25-167 limits assumed): as above
Source text: Biacore is used to analyze the affinity and binding kinetics of the antibody expressed in cell line 4. Using standard amine coupling chemistry and the kit provided by Biacore, the goat anti-human IgG is covalently linked to CMS chip by primary amine. Make the antibody flow in the HBS EP buffer at a flow rate of […] and measure the binding. The binding time is 300 seconds, and the dissociation time is 7200 seconds.

mouse pd1 = target: T3, mouse pd1 (mouse, UniProt Q02242); assay: ELISA: protein coated at 0.5 ug/mL, antibody at 0.5 ug/mL, goat anti-human FAB-HRP, OD450
T3 construct: recombinant protein coated on the ELISA plate; also called recombinant mouse PD-1
T3 sequence (receptor, looked up): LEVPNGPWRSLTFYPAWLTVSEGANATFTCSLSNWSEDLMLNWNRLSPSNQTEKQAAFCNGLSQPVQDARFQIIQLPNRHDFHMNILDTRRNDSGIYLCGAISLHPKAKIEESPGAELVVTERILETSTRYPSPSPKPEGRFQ
Experimental: (§1) The binding of recombinant human CD28, recombinant human CTLA-4, recombinant mouse PD-1, recombinant M.fascicularis PD-1 and recombinant human PD-1 protein in recombinant CD28 family to antibodies is tested. Different proteins are stored at 0.5 μg/mL in enveloping buffer at 4° C. overnight. Remove the solution in wells the next day and wash with PBST for twice. Then add 1% BSA, seal at 37° C. for 1 hour, then wash with PBST for twice. Add 0.5 μg/mL antibody samples, incubate for 1 hour, and wash with PBST for three times. Dilute with goat anti-human FAB-HRP at ratio of 1:10000, incubate for 1 hour at 37 C, and wash with PBST for three times. Add TMB for 15 min coloration, stop the reaction with 0.5M H2SO4 and read out the absorbance at 450 nm.

recombinant human CD28 = target: T4, recombinant human CD28 (human, UniProt P10747 19-152, limits assumed); assay: as above
T4 construct: Plate-coated at 0.5 ug/mL in Embodiment 8
T4 sequence (P10747 19-152 limits assumed): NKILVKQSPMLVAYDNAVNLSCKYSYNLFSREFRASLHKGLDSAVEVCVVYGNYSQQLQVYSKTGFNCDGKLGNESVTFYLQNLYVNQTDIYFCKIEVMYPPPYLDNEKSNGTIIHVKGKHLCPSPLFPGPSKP
Experimental: as §1

recombinant human CTLA-4 = target: T5, recombinant human CTLA-4 (human, UniProt P16410 36-161, limits assumed); assay: as above
T5 construct: Plate-coated at 0.5 ug/mL in Embodiment 8
T5 sequence (looked up): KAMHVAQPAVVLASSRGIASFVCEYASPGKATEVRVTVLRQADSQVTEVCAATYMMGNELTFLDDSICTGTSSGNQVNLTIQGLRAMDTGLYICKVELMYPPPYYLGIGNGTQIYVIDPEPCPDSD
Experimental: as §1

[3] = target: Recombinant human PD-1 fusion protein (human); assay: ELISA: recombinant human PD-1 fusion protein coated at 0.5 ug/mL, antibody kept 1 day in monkey serum at 37 C, goat anti-human FAB-HRP, OD450
Sequence of Recombinant human PD-1 fusion protein (human) (Q15116 25-170): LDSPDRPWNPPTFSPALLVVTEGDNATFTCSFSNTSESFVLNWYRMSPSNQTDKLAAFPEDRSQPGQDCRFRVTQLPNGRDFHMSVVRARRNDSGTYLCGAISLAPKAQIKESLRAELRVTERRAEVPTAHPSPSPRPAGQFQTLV

[4] = target: Recombinant human PD-1 fusion protein (human); assay: ELISA: recombinant human PD-1 fusion protein coated at 0.5 ug/mL, antibody kept 0 days in monkey serum at 37 C, goat anti-human FAB-HRP, OD450
[5] = target: Recombinant human PD-1 fusion protein (human); assay: ELISA: recombinant human PD-1 fusion protein coated at 0.5 ug/mL, antibody kept 4 days in monkey serum at 37 C, goat anti-human FAB-HRP, OD450
[6] = target: Recombinant human PD-1 fusion protein (human); assay: ELISA: recombinant human PD-1 fusion protein coated at 0.5 ug/mL, antibody kept 7 days in monkey serum at 37 C, goat anti-human FAB-HRP, OD450
PD1-Fc-His [7] = target: T6, PD1-Fc-His (UniProt Q15116 25-167, limits assumed); assay: Inhibition ELISA: graded antibody pre-incubated with PD1-Fc-His, added to a plate laid with 'PD1-Fc' (so in the source), anti-His-HRP, OD450
T6 construct: not shown: Fc; His tag
T6 sequence (Q15116 25-167 limits assumed): as the sequence (Q15116 25-167 limits assumed) above
Experimental: (§2) Incubate the gradient diluted antibody and a certain concentration of PD1-Fc-His in advance, then add the mixture to the plate laid with PD1-Fc. Add anti-His-HRP to the plate after incubating and washing. Then perform coloration. Draw up the reaction curve by fitting of readings (see FIG. 7 for results) to calculate the IC50 value.

PD1-Fc-His [8] = target: T6, PD1-Fc-His; assay: competition ELISA: antibody pre-incubated with PD1-Fc-His, plate coated with 'PD1-Fc' (competitor (so in the source)), anti-His-HRP; humanized-section antibody; ELISA competition, PD1-Fc-His in solution
Experimental: as §2

[9] = target: T7, PD1 on PD1-27 cells (PD1 over-expressed CHO-K1 stable transfected cells) (UniProt Q15116 25-288); assay: direct cell binding on PD1-27 CHO-K1 cells, EU fluorescence (heading 'Cell binding activity'; value printed as 'cell inhibitory activity IC50'); direct cell binding on PD1-27 cells, no competitor
T7 construct: whole, on cells
T7 sequence (Q15116 25-288 limits assumed): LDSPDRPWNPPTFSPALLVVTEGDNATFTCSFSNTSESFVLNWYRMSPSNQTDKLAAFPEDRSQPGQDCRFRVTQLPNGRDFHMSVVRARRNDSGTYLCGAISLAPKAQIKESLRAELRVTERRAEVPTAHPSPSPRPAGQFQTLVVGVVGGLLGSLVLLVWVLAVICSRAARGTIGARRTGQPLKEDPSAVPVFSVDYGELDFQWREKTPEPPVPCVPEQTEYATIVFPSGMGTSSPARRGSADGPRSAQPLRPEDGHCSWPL
Source text: (§3) Lay PD1-27 (PD1 over-expressed CHO-K1 stable transfected cells) on the cell plate for culture inspection one day ahead of schedule. After closure on the next day, add gradient-diluted antibody, then anti-mouse-EU after washing, then fluorescence enhancement solution after washing, and obtain the readings.

PD1-His [10] = target: T1, PD1-His; assay: ELISA, PD1-His coated, goat anti-mouse-HRP
Experimental: Envelop PD1-His on the plate, add gradient diluted antibody, incubate and wash it, and then add goat anti-mouse-HRP, perform coloration, and draw up the reaction curve by fitting of readings (see FIG. 1 for results) to calculate the EC50 value.

[11] = target: T7, PD1 on PD1-27 cells (PD1 over-expressed …); assay: cell binding on PD1-27 CHO-K1 cells, anti-mouse-EU fluorescence
Source text: as §3

PD1-Fc-His [12] = target: T6, PD1-Fc-His; assay: Inhibition ELISA: graded antibody pre-incubated with PD1-Fc-His, added to a plate coated with 'PD1-Fc' (so in the source), anti-His-HRP, OD450
Experimental: as §2, with “enveloped” for “laid”, “2” for “7”

[13] = target: T7, PD1 on PD1-27 cells (PD1 over-expressed …); assay: cell competition on PD1-27 CHO-K1 cells against 'PD1-Fc' (competitor (so in the source)), anti-Human-EU; mouse antibody; cell competition on PD1-27 CHO-K1 cells
Source text: Lay PD1-27 (PD1 over-expressed CHO-K1 stable transfected cells) on the cell plate for culture inspection one day ahead of schedule. After closure on the next day, add gradient-diluted antibody and PD1-Fc, then anti-Human-EU after washing, and then fluorescence enhancement solution after washing.

PD1-Fc-His [14] = target: T6, PD1-Fc-His; assay: competition ELISA: antibody pre-incubated with PD1-Fc-His, plate coated with 'PD1-Fc' (competitor (so in the source)), anti-His-HRP; mouse antibody; ELISA competition, PD1-Fc-His in solution
Experimental: as §2, with “enveloped” for “laid”, “2” for “7”

Row | Binder | EC50 (PD1-His [1]) | Kd [2] | koff [2] | kon [2] | binding result (mouse pd1) | binding result (recombinant human CD28) | binding result (recombinant human CTLA-4) | EC50 (read off the curve) [3] | EC50 (read off the curve) [4] | EC50 (read off the curve) [5] | EC50 (read off the curve) [6] | IC50 (read off the curve) (PD1-Fc-His [7]) | IC50 (PD1-Fc-His [8]) | EC50 [9] | EC50 (PD1-His [10]) | EC50 [11] | IC50 (read off the curve) (PD1-Fc-His [12]) | IC50 [13] | IC50 (PD1-Fc-His [14])
1 | B1 | 0.00609 µg/mL | 0.422 nM | 1.93e-05 s⁻¹ | 45700 M⁻¹ s⁻¹ | no binding (tested: 0.5 ug/mL) | no binding (tested: 0.5 ug/mL) | no binding (tested: 0.5 ug/mL) | 0.04 µg/mL | 0.04 µg/mL | 0.04 µg/mL | 0.04 µg/mL | ~0.4 µg/mL | 406 nM | 0.103 µg/mL | – | – | – | – | –
2 | B2 | – | – | – | – | – | – | – | – | – | – | – | – | – | – | 0.0024 µg/mL | 0.0878 µg/mL | ~0.004 µg/mL | 0.284 µg/mL | 3.83 nM
